Measurements taken from the nanobody polyreactivity screen of Harvey et al. (2022).

Assay: yeast display, Sf9 membrane polyspecificity reagent, FACS + sequencing; frameworks hold sequencing errors
Outline: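 Galactose induction of a Saccharomyces cerevisiae BJ5465 synthetic nanobody display library ran 36–48 hours. The cells were then stained for 1 hour at 4 °C with 10% biotinylated, detergent-solubilized Sf9 membrane reagent, pulled down on streptavidin microbeads and FACS-sorted into low and high (top ~1%) gates on expression and reagent-binding fluorescence. Labels for polyreactivity follow the gate of origin.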

Row | Sequence | polyreactivity (PSR sort gate)
1 | QVQLVESGGGLDQAGGSLLLSCAASGSIFNDYAMGWYRQAPGKERELVAAISTSDGSTYYADSVKGRFTISRDNAKNTVYLQMKSLKPEDTAVYYCAVVSDYYYYPPYGYWGQGTQVTVSS | low polyreactivity
2 | QVQLVESGGGLDQAGGSLPLRCAATGSIFHDYALGWYSQAPGKERELVAVISTSGGSTYYADSVKGRFTISRDNAKNTVYLQMNSLKPEDTAVYYCNAELSFWALGYDYWGQGTQVTVSS | low polyreactivity
3 | QVQLVESGGGLDQAGGSLRLICAASGFTITNNAMGWYRQAPGKEREFVAAISASGGSTYYADSVKGRFTISRDNAKNTVYLQMNSLKPEDTAVYYCAVEPVYIVSEVLFDYWGQGTEVTVSS | low polyreactivity
4 | QVQLVESGGGLDQAGGSLRLICAASGFTYPIYAMGWYRQAPGKERELVAAITTRGGRTYYADSVKGRFTISRDNAKNTVYLQMNSLKAEDTAVYYCNALGYAYRLWFGYWGEGTQVTVSS | high polyreactivity
5 | QVQLVESGGGLDQAGGSLRLICAASGITIEYYAMAWYRTAPGKERELVAAISSGGGSTYYADSVKGRFTISRDNAKNSVYLQMISLKPEDTAVYYCAADIVSSPSSYVPPGDYWGQGTQVTVSS | low polyreactivity
6 | QVQLVESGGGLDQAGGSLRLRCAASGRNFRWYTMVWYRQAPGKEREFVAAITWSDTSTSYADSVKGRFTISRDNAKNTVYLQMNSLIPEYTAVYYCNAGDKVSSYWYDYWGQGTQVNVSS | low polyreactivity
7 | QVQLVESGGGLDQAGGSLRLSCAASGFIFDYYAMGWYRQAPGKERELVAAISWDGDSTNYADSVKGRFTISRDNAKNTVYLQMNSLKPEDTAVYYCNADEQLVDGWFFRYDYWGQGTQVTVSS | low polyreactivity
8 | QVQLVESGGGLDQAGGSLRLSCAASGFIYPVYTMGGYRQAPGKERELVAAITQIGGSTHYADTVKGRFTISRDNAKNTVYLQMNSLKPDETAVYYCNAVPSYGTEYDYWGHGTQVTVSS | low polyreactivity
9 | QVQLVESGGGLDQAGGSLRLSCAASGFTFPWYPMGWYRQAPGKEREMVAAISTGGSTDYADSVKGRFTISRDNAKNTVYLKMNILKPEDTAVYYCNAGYWVRKYYHGGYWGQGTQVTLSS | high polyreactivity
10 | QVQLVESGGGLDQAGGSLRLSCAASGFTFRFYAIGWYRQAPGKERELVAAIDTSGGRTYYADSVKGRFTISRDNANNTVYLQMNSLKPEDTAVYYCNAQVLYRYDYWGQGTQVTVSS | high polyreactivity
11 | QVQLVESGGGLDQAGGSLRLSCAASGFTFWYYAMGWYRQAPGKERYLVATISSSGGSTYYADSVKGRFTISRDTAMNTVYLQMNSLKPEDTAVYYCNADDNPVWEYDYWGQGTLVTVSS | low polyreactivity
12 | QVQLVESGGGLDQAGGSLRLSCAASGFTFYWYAMGWYRQAPGKEREFVAAIDQSGGSTYYADSVKGRFTISRDNAKNNVYLQMNSLKPEDTAVYYCAKLYNIGYDYWGLGTQVTVSS | low polyreactivity
13 | QVQLVESGGGLDQAGGSLRLSCAASGFTLYRNAMGWYRQAPGKERELVAAITSSGGRTYYADSVKGRFTISRDNAKYTVYLQMNSLKPEDTAVYYCAAEFGLGYYYWGQGTQVNVSS | high polyreactivity
14 | QVQLVESGGGLDQAGGSLRLSCAASGFTSYENAMGSYRQAPGKERELVAAITWDGGSTYYADSVKGRFTISRDNAKNTVYFQMNSLKPEDTAVYYCAARQVVYYAYTFDYWGQGTQVTVSS | low polyreactivity
15 | QVQLVESGGGLDQAGGSLRLSCAASGFTSYKYSRGWYRQAPGKETELVAASTGSGSRTFYADSVKGRFTISRDNAKNSFYLLMNSLKPEDTADYYCAARRPLYPERDYWGHGTQVTVSS | high polyreactivity
16 | QVQLVESGGGLDQAGGSLRLSCAASGIFGVNTMGWYRQAPGKERELVASITSGGSTNYADSVKGRFTISRDNAKNTVYLQMNSLKPEDTAVYYCAAGLYLQGPFDYWGQGTQVTVSS | low polyreactivity
17 | QVQLVESGGGLDQAGGSLRLSCAASGIIFSQYAMGWYRQAPGKERELVAGITRSGGSTYYADSVKGRFTISRDNAKNTVYLQMNSLKPEDTAVYYCAAVQRYEYGYWGQGTQVTVSS | high polyreactivity
18 | QVQLVESGGGLDQAGGSLRLSCAASGITFTFNAMGWYRQAPGKERELVAAISSTTSTKYADSVKGRFTISRDNAKYTVYLQMNSLKPEDTAVYYCAAVEFELRGDYWGQGTQVTVSS | low polyreactivity
19 | QVQLVESGGGLDQAGGSLRLSCAASGITFYGYAMGWYRQAPGKEREFVAVITSTARTNYADSVKGRFTISRDNAKNTVYLQMNSLKPEDTAVYYCAARRVVRRDRYGSMDYWGQGTQVTVSS | high polyreactivity
20 | QVQLVESGGGLDQAGGSLRLSCAASGITLTANAMGWYRQSPGTERELVAAISRGGSTYYADSVKGRFTISRDNAKNTVYLQMNSVKPEDTQVFYCNKAGGYWYAKRDYDYWGQGTQVTVSS | high polyreactivity
21 | QVQLVESGGGLDQAGGSLRLSCAASGITLTNNAMGWYRQAPGKERELVAAITRSGGSTYYADSVKGRFTISRDNAKNTVYLQMNSLKPEDTAVYCAARWYSYSGSIRSYDYCGQGTQVTVSS | low polyreactivity
22 | QVQLVESGGGLDQAGGSLRLSCAASGLIFRRYAMGWYRQAPGKEREFVAAIRWNGGTTYYADSVKGRFTISRDNAKYTVYLQMNSLKPEDTAVYYCAARVYPAYPRGYDYWGQGTQVTVSS | high polyreactivity

Row | Sequence | polyreactivity (PSR sort gate)
23 | QVQLVESGGGLDQAGGSLRLSCAASGLIFYYYALGWYRQAPGKERELVAAISSRGSSTYYADSVKGRFTISRDNAKKTVYLQMNSLKPEDTAVYYCAADSVRKYFGYDYWGQGTQVTVSS | high polyreactivity
24 | QVQLVESGGGLDQAGGSLRLSCAASGLTFAKYAMGWYRQAPGKERELVAAIRSGDDTTYADSVKGRFTISRDNAKNTVYLQMNSLKPEDTAVYYCAARYYRTWHGGFGYWGQGTQVTVSS | high polyreactivity
25 | QVQLVESGGGLDQAGGSLRLSCAASGLTFATYAMGWYRQAPGKERELVAAINGRGASTNYADSVKGRFTISRDNAKNTVYLKMNSLKPEDTAVYYCASRLYRRNKYVLFDYWGQGTQVTVSS | high polyreactivity
26 | QVQLVESGGGLDQAGGSLRLSCAASGLTFRYYAMGWYRQAPGKERELVAGISGRGGSTYYADSVKGRFTISRDNAKNTVYLQMNSLKPEDTAVYYCAADYSYGRFRRFDYWGQGTQVNVSS | high polyreactivity
27 | QVQLVESGGGLDQAGGSLRLSCAASGLTFYTYAMGWYRQAPGTERELVAAIRWRGGRTYYADSVKGRFTISRDNAKNTVYLQMNSLKPEDTAVYYCAADYSTLYKYDYWGQGTQVTVSS | low polyreactivity
28 | QVQLVESGGGLDQAGGSLRLSCAASGLTSLGNAMGWYRQAPGKERELVAAITRTGTSTYYADSVKGRFTISRDNAKNTVYLQMNSLKPEDTAVYYCNADGQSQYRYGSQYRYDYWGQGTQVTVSS | low polyreactivity
29 | QVQLVESGGGLDQAGGSLRLSCAASGNIFVEYAMGWYSQAPGKERELVAAITNSGGRTHYADSVKGRFTISRDNAKNTGSLQMNSRKPEDTAVFYCAAPTKYRSRRYYWGQGTQVSVSS | high polyreactivity
30 | QVQLVESGGGLDQAGGSLRLSCAASGNTFFWPNAMGWYRQAPGKERELFAGISYRGASTYYADSVKGRFTISRDNAKNTVYLQMNSLKPEDTAVYYCAADNTPRGRRQNRDMYYWGQGTQVTVSS | high polyreactivity
31 | QVQLVESGGGLDQAGGSLRLSCAASGRIFNVYAMGWYRQAPGKERELVASITSAGSTYYADSVKGRFTISRDNAKNTVYIKMNSLKPEDTAVYYCAADCYSVYYSTYDSWGQGTQVTVSS | low polyreactivity
32 | QVQLVESGGGLDQAGGSLRLSCAASGRIFVFYTMAWYRQAPGKERDLVAAITKSGGSTYYADSVKGRFTISRDNAKNTVYFQMNSLKPEDTAVYYCATRDSPRTKNGYYYWGQGTQVTVSS | high polyreactivity
33 | QVQLVESGGGLDQAGGSLRLSCAASGRTFAYYTMGWYRQAPGKERELVAAITSSGGSTYYADSVKGRFTISRDNAKNTVYLQMKSLKPEDTAVYYCNAYGLRWASRLGYDYWGQGTQVTVSS | high polyreactivity
34 | QVQLVESGGGLDQAGGSLRLSCAASGRTFGRNAMGWYRQAPGKESELVAASSTRGGSTFYADSVKARFTISRDNAKNTVYLQMNSLKPEDTAVYYCAAAGTARWPRPTSGLLDYYYWGQVTQVTVSS | high polyreactivity
35 | QVQLVESGGGLDQAGGSLRLSCAASGRTFIAYARGWYRQAPGKERELVAAITSSGGSTNYADSVKGRFTISRDNAKNTVYLQMNSLKPEDTAVYYSATDIYECPYFYYSYYYWGQGTQVTVSS | low polyreactivity
36 | QVQLVESGGGLDQAGGSLRLSCAASGRTFIGYAMGWYRQAPGKVRELVAAFNWSGARTYYADSVKGRFTISRDNAKNTVYLQMNSLKPEDTAVYYCAAVPVTSQTKYGYWGQGTQVTVSS | high polyreactivity
37 | QVQLVESGGGLDQAGGSLRLSCAASGRTFRHYAMGWYRQAPGKERELVASIRWNGASTNYADSVKGRFTISRDNAKNTVYLQMNSLKPEDTAVYYCAARFGSGFNYWGQGTQVTVSS | high polyreactivity
38 | QVQLVESGGGLDQAGGSLRLSCAASGRTFYYYAMGWYRQAPGIERELVAAISWSGGNTYYADSVKGRFTISRDNAKNTVYLQMNSLKPEDTAVYYCNRAYRTLTARTGRYDYWGQGTQVTVSS | high polyreactivity
39 | QVQLVESGGGLDQAGGSLRLSCAASGRTINGNTMGCYRQAPGKQRELVAVIDWSGGSTYYADSVKGRFTISRDNAKNTVYLQMNSLKPEDTAVYYCNAETRDPILYGEYDYWGQGTQVTVSS | low polyreactivity
40 | QVQLVESGGGLDQAGGSLRLSCAASGSIFASNAMGWYRQAPGKERELVAAINSGDSTNYADSVKGRFTISRDNAKNTVYLQMNSLKPEDTAVYYCARGLEERYDYWGQGTQVTVSS | low polyreactivity
41 | QVQLVESGGGLDQAGGSLRLSCAASGSIFDYYAMGWYRQAPGKERELVARISYSGGTTYYADSVKGRFTISRDNAKNTVYLQMNSLKPEDTAVYYCNARIPYSWRYGYWGQGTQVTVSS | high polyreactivity
42 | QVQLVESGGGLDQAGGSLRLSCAASGSIFESYAMGWYRQAPGKERELVAAITKRGGSTYYADSVKGRFTISRDNAKNTVYLQMNRLKPEDTAVYYCNASWPGIGPIYDYWGQGTQVTVSS | low polyreactivity
43 | QVQLVESGGGLDQAGGSLRLSCAASGSIFGSYTLGGYRQAPGKERELVAVINWSGDRTYYADSVKGRFTISRDNAKNTVYLQMNSLKPEDTAVYYCAARERAAYSRIRYNYWGQGTQVTVSS | high polyreactivity
